Data set [1] concerns the molecule itself. In words: cryo-EM structure; reconstituted complexes with TRIP13(E253Q) and ATPγS, 0.3 mg/mL, Titan Krios 300 kV, RELION3.
For another data set, the target named is T1, REV7 (human, UniProt Q9UI95 1-211).
T1 construct: REV7 (MAD2L2, MAD2B), human, 211 residues; also called MAD2L2; MAD2B; not shown: His6-SUMO, N-terminal, cleaved
In words: crystal structure; SHLD2.3–REV7_(4) complex (peak Q2); hanging drop, 0.1 M Na acetate pH 5.6, 1.5 M Na formate, 20 °C; 3.8 Å. As to conditions: both partners purified.

Data set [2] concerns the target T2, REV7 (R124A mutant), full-length (human, UniProt Q9UI95 1-211, R124A).
T2 construct: REV7 (MAD2L2, MAD2B), human, 211 residues, R124A; R124A was introduced to improve crystallization; also called MAD2L2; MAD2B; source: E. coli BL21 CodonPlus(DE3)-RIL, coexpressed with the SHLD3 fragment, purified (HisTrap, HiTrap Q, Superdex 200); not shown: His6-SUMO, N-terminal, cleaved
In words: crystal structure; coexpressed, co-purified SHLD3s–REV7(R124A) complex; hanging drop, 0.2 M ammonium acetate, 0.1 M Na citrate pH 5.6, 30% PEG4000, 20 °C; 2.7 Å. As to conditions: both partners purified.

Data set [3] has as its target T2, REV7 (R124A mutant), full-length. In words: SEC-MALS; coexpressed, co-purified SHLD3(35–74)–REV7(R124A) complex; Superdex200 10/300, 20 mM Tris·HCl pH 7.5, 150 mM NaCl, 2 mM DTT. As to conditions: both partners purified. A general note: Size exclusion chromatography separates by hydrodynamic size, large species first.

T2 sequence (Q9UI95 whole entry R124A, the tested form may be a part): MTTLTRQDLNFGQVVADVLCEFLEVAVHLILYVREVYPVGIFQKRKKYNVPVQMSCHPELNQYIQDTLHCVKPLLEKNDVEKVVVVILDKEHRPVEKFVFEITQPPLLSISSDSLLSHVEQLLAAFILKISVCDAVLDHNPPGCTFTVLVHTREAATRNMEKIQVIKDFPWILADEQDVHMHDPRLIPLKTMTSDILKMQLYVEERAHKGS
T1 sequence (Q9UI95 whole entry): as the sequence (Q9UI95 whole entry R124A, the tested form may be a part) above, with A124R counted along it

B1: TRIP13 catalytic mutant (E253Q) hexamer (enzyme)
chain: MDEAVGDLKQALPCVAESPTVHVEVHQRGSSTAKKEDINLSVRKLLNRHNIVFGDYTWTEFDEPFLTRNVQSVSIIDTELKVKDSQPIDLSACTVALHIFQLNEDGPSSENLEEETENIIAANHWVLPAAEFHGLWDSLVYDVEVKSHLLDYVMTTLLFSDKNVNSNLITWNRVVLLHGPPGTGKTSLCKALAQKLTIRLSSRYRYGQLIEINSHSLFSKWFSESGKLVTKMFQKIQDLIDDKDALVFVLIDQVESLTAARNACRAGTEPSDAIRVVNAVLTQIDQIKRHSNVVILTTSNITEKIDVAFVDRADIKQYIGPPSAAAIFKIYLSCLEELMKCQIIYPRQQLLTLRELEMIGFIENNVSKLSLLLNDISRKSEGLSGRVLRKLPFLAHALYVQAPTVTIEGFLQALSLAVDKQFEERKKLAAYI
notes: TRIP13, AAA+ ATPase, E253Q; used with ATPγS; also called TRIP13(E253Q); TRIP13 (E253Q); source: E. coli BL21 CodonPlus(DE3)-RIL, purified (HiTrap Q, Superdex 200)
As to B1, in data set [1], the “stoichiometry N” value stood at 6.

B2: SHLD2 fragment (residues 1 to 19), the SHLD2 part of SHLD2.3 (domain or fragment, human, UniProt Q86V20 1-19, looked up)
chain: MSGGSQVHIFWGAPIAPLK
notes: In the crystal it stood on one chain with SHLD3(1-58); written apart for the SHLD2–SHLD3 and SHLD2–REV7 contacts; also called SHLD2(residues 1 to 19); source: E. coli BL21 CodonPlus(DE3)-RIL, as part of the SHLD2.3 fusion chain, purified with REV7
In the case of B2, the binding result in the data set with REV7 is reported as “binds”.

B3: SHLD3s fusion protein (SHLD3 residues 35 to 58 and REV3 residues 1887 to 1894) (other, UniProt Q6ZNX1 35-58, looked up)
chain: LSRFIPWFPYDGSKLPLRPKRSPPREEIMATL
notes: SHLD3, human, residues 35-58; also called SHLD3_(35–58)
As to B3, the binding result in data set [2] is listed as “binds”.

B4: SHLD3 35- to 74-residue fragment (domain or fragment, human, UniProt Q6ZNX1 35-74, looked up)
chain: LSRFIPWFPYDGSKLPLRPKRSPPVISEEAAEDVKQYLTI
notes: SHLD3, human, 250 residues; residues 35-74; also called SHLD3_(35–74); source: E. coli, coexpressed with REV7(R124A), purified as the complex
Consider B4, for which the binding result in data set [3] is on record as “binds”.

Usually stoichiometry N stands for a count of units in the complex or per binding partner.

These data come from PMC7923543, “Molecular mechanisms of assembly and TRIP13-mediated remodeling of the human Shieldin complex” (Proceedings of the National Academy of Sciences of the …, 2021).
